# Measured values as given in patent US20210269780A1.
# Biological target: G3BP (human) (UniProt Q13283)
row,percentage of cells with PABPC1-positive stress granules after sodium arsenite,Substance
1,46 % of cells,G3BPdi-mCherry-sspB (from UniProt Q13283)
2,85 % of cells,mCherry-sspB
